Here are results for one molecule from patent US20240425569A1 (VISTERRA, published 2024).

Experiment [1] concerns the target T1, EDIII-DV4 (E protein domain III of dengue virus serotype DV-4) (dengue virus serotype DV-4, UniProt P09866 572-679).
T1 construct: also called DENV-4
Put plainly: affinity for EDIII, table of FIG. 4; method not stated.

The target in experiment [2] is T2, EDIII-DV1 (E protein domain III of dengue virus serotype DV-1) (dengue virus serotype DV-1, UniProt P17763 573-680).
T2 construct: also called DENV-1; EDIII of DV-1
T2 chain: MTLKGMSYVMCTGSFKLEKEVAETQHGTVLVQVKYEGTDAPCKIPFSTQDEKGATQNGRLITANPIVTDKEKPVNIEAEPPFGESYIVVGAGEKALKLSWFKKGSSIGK

Experiment [3] deals with T3, EDIII-DV3 (E protein domain III of dengue virus serotype DV-3) (dengue virus serotype DV-3, UniProt P27915 571-678).
T3 construct: also called DENV-3; EDIII of DV-3

For experiment [4], the target named is T4, EDIII-DV2 (E protein domain III of dengue virus serotype DV-2) (dengue virus serotype DV-2, UniProt P14337 573-677).
T4 construct: also called DENV-2; EDIII of DV-2

In experiment [5] the target is T1, EDIII-DV4 (E protein domain III of …).

Some results are limits rather than exact numbers.

T4 sequence (P14337 573-677, tags left off): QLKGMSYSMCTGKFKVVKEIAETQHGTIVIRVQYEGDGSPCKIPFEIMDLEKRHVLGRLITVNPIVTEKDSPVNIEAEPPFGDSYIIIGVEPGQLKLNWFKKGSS
T3 sequence (P27915 571-678, tags left off): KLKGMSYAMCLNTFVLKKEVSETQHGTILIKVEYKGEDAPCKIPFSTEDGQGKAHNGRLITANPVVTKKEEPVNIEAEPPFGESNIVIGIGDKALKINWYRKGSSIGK

B1: antibody B48+A98V (antibody, V domains shown)
VH: QVQLVQSGAEVKKPGASVKVSCKAGFNIKDTYMSWVRQAPEQGLEWMGRIDPENGDTKYDPKLQGRVTMTADTSTNTAYMELRSLRSDDTAVYYCVRGWEGFAYWGQGTLVTVSS
VL: DIVMTQSPASLAVSLGERATISCRASENVDKYGNSFMHWYQQKPGQPPKLLIYRASELQWGVPDRFSGSGSGTDFTLTISSLQAEDVAVYYCQRSNEVPWTFGQGTKLEIK
Take B1: in experiment [1], the “fold improvement in binding relative to antibody B48” value is around 5 fold. Moreover, the Kd in experiment [2] is below 0.1 nM; in experiment [3], 5.06 nM; in experiment [4], below 0.1 nM; in experiment [5], 9.26 nM.
